Assay results from patent publication US20240116985A1, “STAPLED PEPTIDES AND METHODS THEREOF” (priority 2020, published 2024).
Starred links: 1 amine or outer side, 2 acyl side, 3 side chain; linkers in the order of their positions; H or OH if unused. Positions of bridges follow the written chain, without caps; N, C: chain ends. Non-standard residues stand in square brackets, D forms with d. Primed or numbered codes have the meaning given here. PyrS2″ = (S)-3-amino-1-((pent-4-en-1-yloxy)carbonyl)pyrrolidine-3-carboxylic acid (stapling residue), C=CCCCOC(=O)N1CC[C@@](N[*:1])(C(=O)[*:2])C1; B5(16) = 2-amino-2-(pent-4-en-1-yl)hept-6-enoic acid = 2,2-bis(4-pentenyl)glycine (stitching residue), C=CCCCC(CCCC=C)(N[*:1])C(=O)[*:2]; B5(4) = 2,2-bis(4-pentenyl)glycine = 2-amino-2-(pent-4-en-1-yl)hept-6-enoic acid (stitching residue), C=CCCCC(CCCC=C)(N[*:1])C(=O)[*:2]; B5(5) = 2,2-bis(4-pentenyl)glycine, 2-amino-2-(pent-4-en-1-yl)hept-6-enoic acid (stitching residue), C=CCCCC(CCCC=C)(N[*:1])C(=O)[*:2]; TfeGA = (S)-2-amino-3-((carboxymethyl)(2,2,2-trifluoroethyl)amino)propanoic acid, O=C([C@H](CN(CC(=O)[*:3])CC(F)(F)F)N[*:1])[*:2]; PyrS2 = (S)-3-amino-1-((pent-4-en-1-yloxy)carbonyl)pyrrolidine-3-carboxylic acid, C=CCCCOC(=O)N1CC[C@@](N[*:1])(C(=O)[*:2])C1; PyrS1 = (S)-3-amino-1-((but-3-en-1-yloxy)carbonyl)pyrrolidine-3-carboxylic acid, C=CCCOC(=O)N1CC[C@@](N[*:1])(C(=O)[*:2])C1; B5(3) = 2,2-bis(4-pentenyl)glycine (stitching residue), C=CCCCC(CCCC=C)(N[*:1])C(=O)[*:2]; AspSH = (S)-2-amino-4-mercapto-4-oxobutanoic acid, O=C(C[C@H](N[*:1])C(=O)[*:2])S[*:3]; B5 = 2-amino-2-(pent-4-en-1-yl)hept-6-enoic acid, C=CCCCC(CCCC=C)(N[*:1])C(=O)[*:2]; B6 = 2-amino-2-(hex-5-en-1-yl)oct-7-enoic acid, C=CCCCCC(CCCCC=C)(N[*:1])C(=O)[*:2]; Phe(3-CONH2) = NC(=O)c1cccc(C[C@H](N)C(=O)O)c1; Phe(3-COOH) = N[C@@H](Cc1cccc(C(=O)O)c1)C(=O)O; Phe(4-CONH2) = NC(=O)c1ccc(C[C@H](N)C(=O)O)cc1; 2F3MeF = Cc1cccc(C[C@H](N[*:1])C(=O)[*:2])c1F; Phe(2-CF3) = N[C@@H](Cc1ccccc1C(F)(F)F)C(=O)O; Phe(2-CONH2) = NC(=O)c1ccccc1C[C@H](N)C(=O)O; Phe(3-Cl) = N[C@@H](Cc1cccc(Cl)c1)C(=O)O; Phe(4-Cl) = N[C@@H](Cc1ccc(Cl)cc1)C(=O)O; Phe(2-Cl) = N[C@@H](Cc1ccccc1Cl)C(=O)O; Bta = N[C@@H](Cc1csc2ccccc12)C(=O)O; Lys(iPr) = CC(C)NCCCC[C@H](N)C(=O)O; αAllylPro = C=CC[C@@]1(C(=O)O)CCCN1; tBuAla = CC(C)(C)C[C@H](N)C(=O)O; 3Thi = N[C@@H](Cc1ccsc1)C(=O)O; Cha = N[C@@H](CC1CCCCC1)C(=O)O; S8 = C=CCCCCCC[C@](C)(N)C(=O)O; αMeP = C[C@@]1(C(=O)O)CCCN1; TfeGA″ = not defined here; hSer = N[C@@H](CCO)C(=O)O; Nle = CCCC[C@H](N)C(=O)O; Aib = CC(C)(N)C(=O)O

target: full-length beta-Catenin (Uniprot ID P35222) (Homo sapiens (Human)) (UniProt P35222); experiment: fluorescence polarization competition; displacement of 5FAM-TCF4(10-53) from full-length beta-catenin
Target sequence in this assay (P35222 whole entry): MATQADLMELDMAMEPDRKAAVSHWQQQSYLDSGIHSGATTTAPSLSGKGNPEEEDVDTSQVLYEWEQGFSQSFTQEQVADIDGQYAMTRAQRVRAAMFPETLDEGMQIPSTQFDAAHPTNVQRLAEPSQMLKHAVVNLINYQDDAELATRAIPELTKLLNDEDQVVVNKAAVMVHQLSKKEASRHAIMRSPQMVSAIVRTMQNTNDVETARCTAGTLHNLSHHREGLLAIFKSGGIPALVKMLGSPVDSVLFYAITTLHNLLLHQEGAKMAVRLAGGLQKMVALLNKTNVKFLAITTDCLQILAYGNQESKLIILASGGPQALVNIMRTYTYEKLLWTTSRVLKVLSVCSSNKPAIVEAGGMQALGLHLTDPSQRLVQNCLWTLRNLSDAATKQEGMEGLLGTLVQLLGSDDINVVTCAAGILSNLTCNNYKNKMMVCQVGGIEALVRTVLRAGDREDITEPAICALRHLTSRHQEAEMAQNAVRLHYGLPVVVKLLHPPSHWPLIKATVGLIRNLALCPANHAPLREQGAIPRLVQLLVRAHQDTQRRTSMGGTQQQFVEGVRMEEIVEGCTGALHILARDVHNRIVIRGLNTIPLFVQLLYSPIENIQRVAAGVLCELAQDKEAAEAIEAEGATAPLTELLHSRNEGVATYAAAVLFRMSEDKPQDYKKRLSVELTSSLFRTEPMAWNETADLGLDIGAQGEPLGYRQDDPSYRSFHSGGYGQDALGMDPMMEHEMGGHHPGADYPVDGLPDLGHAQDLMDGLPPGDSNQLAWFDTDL

IC50 [nM]	Binder
17	Ac-[αAllylPro]D[Nle][B5(5)]DEAAF[hSer][S8]F[Bta]Q-NH2 (staple 1-4, 4-11; also: staple isomer, earlier eluting HPLC peak) [I-1524: Ac-PL3-Asp-nLeu-B5-Asp-Glu-Ala-Ala-Phe-Hse-S8-Phe-BztA-Gln-NH2]
22	Ac-[αAllylPro]D[Nle][B5(5)]DEAAF[hSer][S8]F[Bta]Q-NH2 (staple 1-4, 4-11) [I-1525: Ac-PL3-Asp-nLeu-B5-Asp-Glu-Ala-Ala-Phe-Hse-S8-Phe-BztA-Gln-NH2]
29	Ac-[αAllylPro]D[Nle][B5(5)]DEAAFL[S8]F[Bta]Q-NH2 (staple 1-4, 4-11) [I-1523: Ac-PL3-Asp-nLeu-B5-Asp-Glu-Ala-Ala-Phe-Leu-S8-Phe-BztA-Gln-NH2]

target: full-length beta-Catenin (Uniprot ID P35222) (Homo sapiens (Human)) (UniProt P35222); experiment: fluorescence polarization competition; peptide titrated against 10 nM full-length beta-catenin + 10 nM 5FAM-TCF4(10-53)

IC50 [nM]	Binder
139	Ac-[αAllylPro][AspSH][tBuAla][B5]DDAAFN[PyrS2][Phe(2-Cl)][Bta]Q-NH2 (staple 1-4, 4-11; not fully specified) [I-1721]
97	Ac-[αAllylPro]D[tBuAla][B5(3)]D[Phe(3-COOH)]AAFL[PyrS2″][2F3MeF][Phe(3-Cl)]S-NH2 (staple 1-4, 4-11) [I-2226]
84	Ac-[αAllylPro]D[tBuAla][B5(3)]D[Phe(3-COOH)]AAFL[PyrS2″][2F3MeF][Phe(4-Cl)]S-NH2 (staple 1-4, 4-11) [I-2222]
10000	Ac-[αAllylPro]N[Cha][B5(5)]DQ[Lys(iPr)]AFN[PyrS2″][Phe(4-CONH2)][Bta][hSer]-NH2 (staple 1-4, 4-11) [I-2169]
10000	Ac-[αAllylPro]N[Cha][B5(5)]DQ[Lys(iPr)]A[Phe(4-CONH2)]N[PyrS2″]F[Bta][hSer]-NH2 (staple 1-4, 4-11) [I-2174]
9	Ac-[αAllylPro]D[tBuAla][B5(16)]D[TfeGA]AAFL[PyrS2″][3Thi][Bta]N-NH2 (staple 1-4, 4-11) [I-1705]
3070	Ac-[αAllylPro]N[Cha][B5(5)]DQ[Lys(iPr)]A[Phe(2-CONH2)]N[PyrS2″]F[Bta][hSer]-NH2 (staple 1-4, 4-11) [I-2173]
249	Ac-[αAllylPro]D[tBuAla][B5(5)]D[TfeGA]AAFL[PyrS2″][3Thi][Bta][Phe(2-CONH2)]-NH2 (staple 1-4, 4-11; also: staples hydrogenated: -CH=CH- reduced to -CH2-CH2-) [I-1717]
14	Ac-[αAllylPro]D[tBuAla][B5(3)]D[Phe(3-COOH)]AAFL[PyrS2″][3Thi][Phe(3-Cl)]Q-NH2 (staple 1-4, 4-11) [I-2224]
50	Ac-[αAllylPro]D[tBuAla][B5(3)]D[Phe(3-COOH)]QAFL[PyrS2″][2F3MeF][Phe(4-Cl)]A-NH2 (staple 1-4, 4-11) [I-2223]
19	Ac-[αAllylPro]D[tBuAla][B5(4)]D[TfeGA]AAFL[PyrS2″][3Thi][Bta][Phe(2-CONH2)]-NH2 (staple 1-4, 4-11) [I-1707]
5190	Ac-[αMeP]D[tBuAla][Aib]DDAAFQ[Aib][3Thi][Bta]HK-NH2 (SMILES CC(=O)N1CCC[C@@]1(C)C(=O)N[C@@H](CC(=O)O)C(=O)N[C@@H](CC(C)(C)C)C(=O)NC(C)(C)C(=O)N[C@@H](CC(=O)O)C(=O)N[C@@H](CC(=O)O)C(=O)N[C@@H](C)C(=O)N[C@@H](C)C(=O)N[C@@H](Cc1ccccc1)C(=O)N[C@@H](CCC(N)=O)C(=O)NC(C)(C)C(=O)N[C@@H](Cc1ccsc1)C(=O)N[C@@H](Cc1csc2ccccc12)C(=O)N[C@@H](Cc1c[nH]cn1)C(=O)N[C@@H](CCCCN)C(N)=O) [I-2231]
19	Ac-[αAllylPro]D[tBuAla][B5(5)]DDAAFN[PyrS2″][3Thi]WQ-NH2 (staple 1-4, 4-11) [I-2175]
6	Ac-[αAllylPro]D[tBuAla][B5(3)]DDAAFQ[PyrS2″][3Thi][Bta]HK-NH2 (staple 1-4, 4-11; also: earlier eluting staple isomer) [I-2229]
10000	Ac-[αAllylPro]N[Cha][B5(5)]DQ[Lys(iPr)]AFN[PyrS2″]N[Bta][hSer]-NH2 (staple 1-4, 4-11) [I-2170]
2140	Ac-[αMeP]D[tBuAla][Aib]DDAAFQ[Aib][3Thi][Bta]H-NH2 (SMILES CC(=O)N1CCC[C@@]1(C)C(=O)N[C@@H](CC(=O)O)C(=O)N[C@@H](CC(C)(C)C)C(=O)NC(C)(C)C(=O)N[C@@H](CC(=O)O)C(=O)N[C@@H](CC(=O)O)C(=O)N[C@@H](C)C(=O)N[C@@H](C)C(=O)N[C@@H](Cc1ccccc1)C(=O)N[C@@H](CCC(N)=O)C(=O)NC(C)(C)C(=O)N[C@@H](Cc1ccsc1)C(=O)N[C@@H](Cc1csc2ccccc12)C(=O)N[C@@H](Cc1c[nH]cn1)C(N)=O) [I-2228]
199	Ac-[αAllylPro]N[Cha][B5(4)]DQ[Lys(iPr)]AFN[PyrS2″]F[Bta][hSer]-NH2 (staple 1-4, 4-11) [I-2167]

IC50 [nM]	Binder
10000	Ac-[αAllylPro]N[Cha][B5(5)]DQ[Lys(iPr)]AFN[PyrS2″]Q[Bta][hSer]-NH2 (staple 1-4, 4-11) [I-2171]
212	Ac-[αAllylPro]N[Cha][B5(4)]DQ[Lys(iPr)]AFN[PyrS2″][Phe(2-CONH2)][Bta][hSer]-NH2 (staple 1-4, 4-11) [I-2168]
95	Ac-[αAllylPro]D[tBuAla][B5(4)]D[TfeGA]AAFL[PyrS2″][3Thi][Bta]N-NH2 (staple 1-4, 4-11; also: -CH=CH- in each staple reduced to -CH2-CH2-) [I-1715]
1180	Ac-[αAllylPro]N[Cha][B5(5)]DQ[Lys(iPr)]AFN[PyrS2″][Phe(3-CONH2)][Bta]Q-NH2 (staple 1-4, 4-11) [I-2164]
1590	Ac-[αAllylPro]N[Cha][B5(5)]DQ[Lys(iPr)]AFL[PyrS2″][Phe(3-CONH2)][Bta][hSer]-NH2 (staple 1-4, 4-11) [I-2166]
10000	Ac-[αAllylPro]N[Cha][B5(5)]DQ[Lys(iPr)]AFN[PyrS2″]Y[Bta][hSer]-NH2 (staple 1-4, 4-11) [I-2172]
29	Ac-[αAllylPro]D[tBuAla][B5(4)]D[TfeGA]AAFL[PyrS2″][3Thi][Bta][Phe(3-CONH2)]-NH2 (staple 1-4, 4-11) [I-1708]
47	Ac-[αAllylPro]D[tBuAla][B5(3)]D[Phe(3-COOH)]QAFL[PyrS2″][2F3MeF][Phe(3-Cl)]A-NH2 (staple 1-4, 4-11) [I-2227]
3720	Ac-[αAllylPro]N[Cha][B5(5)]DQ[Lys(iPr)]AFL[PyrS2″][Phe(3-CONH2)][Bta]Q-NH2 (staple 1-4, 4-11) [I-2163]
24	Ac-[αAllylPro]D[tBuAla][B6]D[Phe(3-COOH)]QAFL[PyrS1][Phe(2-CF3)][Bta]A-NH2 (staple 1-4, 4-11) [I-2510]
441	Ac-[αAllylPro]N[Cha][B5(5)]DQ[Lys(iPr)]AFL[PyrS2″]F[Bta][hSer]-NH2 (staple 1-4, 4-11) [I-2165]
5000	XDAXDEAAFVXXXQ (not fully specified; N-terminal Ac; PL3 at 1, B5 at 4, S8 at 11 (staples 1-4 and 4-11 by olefin metathesis); 2pyrA at 12; BztA at 13; C-terminal NH2) [I-383]
24	Ac-[αAllylPro]D[tBuAla][B5(4)]D[TfeGA″]AAFL[PyrS2″][3Thi][Bta]T-NH2 (staple 1-4, 4-11; reading uncertain) [I-1706]
382	Ac-[αAllylPro]D[tBuAla][B5(5)]D[TfeGA]AAFL[PyrS2″][3Thi][Bta][Phe(3-CONH2)]-NH2 (staple 1-4, 4-11; also: staples hydrogenated: -CH=CH- reduced to -CH2-CH2-) [I-1718]
8	Ac-[αAllylPro]D[tBuAla][B5(3)]DDAAFQ[PyrS2″][3Thi][Bta]HK-NH2 (staple 1-4, 4-11; also: later eluting staple isomer) [I-2230]
224	Ac-[αAllylPro]D[tBuAla][B5(4)]D[TfeGA]AAFL[PyrS2″][3Thi][Bta]T-NH2 (staple 1-4, 4-11; also: -CH=CH- in each staple reduced to -CH2-CH2-) [I-1716]
